Experimental findings from article PMC6941230 are described below.

The data set addresses T1, Rox1 (Saccharomyces cerevisiae, UniProt P25042 1-368).
T1 sequence: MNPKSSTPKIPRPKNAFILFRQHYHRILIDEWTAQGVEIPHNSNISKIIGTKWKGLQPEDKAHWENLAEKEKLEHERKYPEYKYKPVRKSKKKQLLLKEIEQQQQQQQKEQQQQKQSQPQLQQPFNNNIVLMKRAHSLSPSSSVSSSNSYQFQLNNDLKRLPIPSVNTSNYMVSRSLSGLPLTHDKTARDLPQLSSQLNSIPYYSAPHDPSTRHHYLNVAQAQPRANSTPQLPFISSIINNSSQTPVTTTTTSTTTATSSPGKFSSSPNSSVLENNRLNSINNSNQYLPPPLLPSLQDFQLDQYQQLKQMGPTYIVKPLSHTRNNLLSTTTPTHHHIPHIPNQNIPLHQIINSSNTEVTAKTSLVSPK
The data set is described as follows: EMSA. In general terms: Mobility shift assays separate free from complexed probe on a gel.

B1: HMG6bp (dsDNA)
DNA 1: TGATTGTCAATTTAGTTAATCATTGTTATTAATAAAGGAAAGATATAAAA
DNA 2: TTTTATATCTTTCCTTTATTAATAACAATGATTAACTAAATTGACAATCA
As to B1, the binding result is reported as “binds”.
